Assay results as given in patent publication US20100143349A1 (Pfizer, published 2010).
Where a chain is given by its changes, count along the chain named. Several values for one entry are separate records, joined by “and”; a condition that tells them apart may be missing. Identical values can stand only once. Values belong to the binder of their own block, whether it stands above or below them.

Experiments:
hRAGE-Fc [1] = target: T1, hRAGE-Fc (human, UniProt Q15109 23-342, biotin label in the selections and HTRF assays); test: HTRF competition, scFv vs labelled parental XT-M4 (competitor) on biotin hRAGE-Fc
T1 construct: extracellular domain; also called biotin labeled hRAGE-Fc; Biotin-labeled RAGE-Fc; not shown: Fc part
T1 sequence (Q15109 23-342): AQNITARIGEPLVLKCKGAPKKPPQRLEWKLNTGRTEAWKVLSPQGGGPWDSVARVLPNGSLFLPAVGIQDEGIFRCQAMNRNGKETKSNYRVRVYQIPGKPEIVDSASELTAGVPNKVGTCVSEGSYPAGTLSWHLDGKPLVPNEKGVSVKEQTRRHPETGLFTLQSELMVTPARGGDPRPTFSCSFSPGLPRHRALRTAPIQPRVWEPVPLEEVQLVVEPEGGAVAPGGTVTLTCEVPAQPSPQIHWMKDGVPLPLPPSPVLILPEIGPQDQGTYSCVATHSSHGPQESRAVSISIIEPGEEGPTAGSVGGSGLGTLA
Description: (§1) Increases in binding to RAGE antigen were detected with the aid of a competition assay using parental XT-M4 antibody. Both phage display and ribosome display libraries were selected for affinity improved variants by incubating with biotin labeled hRAGE-Fc, recovering binding clones using streptavidin magnetic beads and washing away non binding variants. Sequential rounds of selection were carried on decreasing antigen concentrations to drive the preferential recovery of higher affinity variants. Clones recovered after selection were subsequently screening for improved binding to hRAGE-Fc using HTRF. This is an assay that measures the decrease in fluorescence upon binding of parental europium cryptate-labeled XT-M4 to RAGE in the presence of competing test scFv antibodies. In these assays, periplasmic preparations of scFv were prepared from bacterial cultures and added in increasing concentrations to a combination of parental antibody and antigen. The ability of the scFV to compete with parental XT-M4 antibody to bind to Biotin-labeled RAGE-Fc was determined. In the presence of avidin-XL665 complex labeled XT-M4 bound to biotinylated RAGE-FC was detected by Fluorescence. Increasing amounts of scFv that competed with the XT-M4 for binding to biotinylated-RAGE-Fc was detected as a decrease in fluorescence. A sequential process of screening was used to focus in on a smaller number of clones with the greatest competition in HTRF assay

hRAGE-Fc [2] = target: T1, hRAGE-Fc; test: HTRF competition, scFv vs labelled parental XT-M4 (competitor) on hRAGE
Description: as §1

hRAGE-Fc [3] = target: T1, hRAGE-Fc; test: HTRF competition, scFv vs labelled parental XT-M4 (competitor) on biotin hRAGE-Fc; remark: listed apart in the source
Description: as §1

[4] = target: T2, human RAGE expressed on CHO cells (human, UniProt Q15109 23-404); test: cell ELISA on CHO-RAGE cells, A450 corrected for control CHO cells; ribosome display set
T2 construct: whole, on cells; also called CHO-RAGE cells; cell surface expressed human RAGE
T2 sequence (Q15109 23-404): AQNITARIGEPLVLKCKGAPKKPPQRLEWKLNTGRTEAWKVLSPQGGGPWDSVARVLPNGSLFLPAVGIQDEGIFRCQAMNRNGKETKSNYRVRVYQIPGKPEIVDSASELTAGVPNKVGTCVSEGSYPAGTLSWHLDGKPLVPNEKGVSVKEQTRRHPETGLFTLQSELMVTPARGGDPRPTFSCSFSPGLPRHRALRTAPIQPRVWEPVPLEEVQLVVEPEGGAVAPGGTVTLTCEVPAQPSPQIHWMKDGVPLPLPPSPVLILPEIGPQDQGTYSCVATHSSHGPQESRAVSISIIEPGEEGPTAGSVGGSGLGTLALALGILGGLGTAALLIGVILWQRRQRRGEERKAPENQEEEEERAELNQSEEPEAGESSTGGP
Description: (§2) Stably transfected Chinese Hamster Ovary (CHO) cells were engineered to express murine and human RAGE full length proteins. The murine and human RAGE cDNAs were cloned into the mammalian expression vector pSMED, linearized and transfected into CHO cells using lipofectin methods (Kaufman, R. J., 1990, Methods in Enzymology 185:537-66; Kaufman, R. J., 1990, Methods in Enzymology 185:487-511; Pittman, D. D. et al., 1993, Methods in Enzymology 222: 236). Cells were further selected in 20 nM methotrexate and cell extracts were harvested from individual clones and analyzed by SDS sodium dodecyl sulfate-polyacrylamide gel electrophoresis (SDS-PAGE) and Western blotting to confirm expression. […] Absorbance 450 nm values were corrected for the same clones binding to control CHO cells not expressing RAGE. EC50 values were calculated after curve fitting using GraphPad prism and are expressed in μg/ml.

[5] = target: T2, human RAGE expressed on CHO cells; test: cell ELISA on CHO-RAGE cells, A450 corrected for control CHO cells; phage display set
Description: as §2

HU-RAGE-SA [6] = target: T3, HU-RAGE-SA (human, UniProt Q15109 23-342); test: BIAcore, 10 nM scFv-Fc over directly immobilized HU-RAGE-SA, 1:1 fit
T3 construct: extracellular domain; Directly immobilized on a CM5 chip (~100 RU); also called hRAGE-SA; soluble human streptavidin-tagged RAGE; not shown: streptavidin tag (SA)
T3 sequence (Q15109 23-342): as the sequence (Q15109 23-342) above

hRAGE-Fc [7] = target: T1, hRAGE-Fc; test: IC50 of parental M4 scFv over IC50 of clone, HTRF competition
Description: as §1

[8] = target: T2, human RAGE expressed on CHO cells; test: cell ELISA on CHO-RAGE cells, A450 corrected for control CHO cells
Description: as §2

hRAGE-Fc [9] = target: T1, hRAGE-Fc; test: IC50 of parental M4 scFv-Fc (value of the ribosome display set) over IC50 of clone, HTRF competition
HU-RAGE-SA [10] = target: T3, HU-RAGE-SA; test: BIAcore kd against parental M4 scFv-Fc

B1: parental XT-M4 scFv (VH 2.0, VL 2.11), VL-VH format (scFv)
scFv: DIQMTQSPSSLSASVGDRVTITCRASQDVGIYVNWFQQKPGKAPRRLIYRATNLADGVPSRFSGSRSGTDFTLTISSLQPEDFATYYCLEFDEHPLTFGGGTKVEIKDGGGSGGGGSGGGGSSEVQLVESGGGLVQPGGSLRLSCAASGFTFNNYWMTWVRQAPGKGLEWVASIDNSGDNTYYPDSVKDRFTISRDNAKNSLYLQMNSLRAEDTAVYYCARGGDITTGFDYWGQGTLVTVSS
notes: also called M4WT
IC50 (hRAGE-Fc [1]): 33 nM | IC50 (hRAGE-Fc [2]): 33 nM | IC50 (hRAGE-Fc [3]): 33.2 nM

B2: parental XT-M4 scFv-Fc fusion (Fc fusion)
chain: B1 scFv
notes: Bivalent scFv-Fc made in COS cells; not shown: wild-type human IgG Fc (hinge and constant domains)
EC50 [4]: 0.388 µg/mL | EC50 [5]: 0.408 µg/mL | koff (HU-RAGE-SA [6]): 0.0293 s⁻¹ and 0.0291 s⁻¹

B4: 6G4 scFv-Fc fusion (Fc fusion)
chain: B1 scFv with T226L, T227D, G228S, F229L, D230H, Y231F
notes: Assayed separately; fold gain against the M4 value of the ribosome display set; not shown: wild-type human IgG Fc (hinge and constant domains)
EC50 [8]: 0.172 µg/mL | Fold gain scFv-Fc (hRAGE) (hRAGE-Fc [9]): 11.1 fold | Fold change in kd (HU-RAGE-SA [10]): 7.6 fold | koff (HU-RAGE-SA [6]): 0.00388 s⁻¹

B6: S1R5A1_10G10 scFv (scFv)
scFv: B1 scFv with K103R, T158S, D179E
IC50 (hRAGE-Fc [1]): 16.3 nM | Fold gain scFv (hRAGE) (hRAGE-Fc [7]): 2 fold | IC50 (hRAGE-Fc [2]): 16.3 nM

B7: S2R4A3_5A3 scFv (scFv)
scFv: B1 scFv with R18I, G68S, Q205K, A220T, F229L
IC50 (hRAGE-Fc [1]): ~3 nM | Fold gain scFv (hRAGE) (hRAGE-Fc [7]): 11 fold | IC50 (hRAGE-Fc [2]): 3 nM

B8: S2R4A3_10H6 scFv (scFv)
scFv: B1 scFv with R18G, R24Q, D108N, F229L, V240E
notes: also called 10H6 (a)
IC50 (hRAGE-Fc [1]): 0.3 nM | Fold gain scFv (hRAGE) (hRAGE-Fc [7]): 110 fold | IC50 (hRAGE-Fc [2]): 0.3 nM

B10: S2R3A1_8G9 scFv (scFv)
scFv: B1 scFv with G139S, F229L
IC50 (hRAGE-Fc [1]): ~2.4 nM | Fold gain scFv (hRAGE) (hRAGE-Fc [7]): 13.8 fold | IC50 (hRAGE-Fc [2]): 2.4 nM

B12: S2R4A4_1G6 scFv (scFv)
scFv: B1 scFv with I31F, T227N
IC50 (hRAGE-Fc [1]): 1.2 nM | Fold gain scFv (hRAGE) (hRAGE-Fc [7]): 21.5 fold | IC50 (hRAGE-Fc [2]): 1.2 nM

More lines, in order of falling IC50 (hRAGE-Fc [1]), values ahead:

IC50 (hRAGE-Fc [1]): 8.2 nM | Fold gain scFv (hRAGE) (hRAGE-Fc [7]): 4 fold | IC50 (hRAGE-Fc [2]): 8.2 nM
B9: S2R3A1_5H3 scFv (scFv)
scFv: B1 scFv with Y49D, Q126L

IC50 (hRAGE-Fc [1]): 2.6 nM | Fold gain scFv (hRAGE) (hRAGE-Fc [7]): 12.7 fold | IC50 (hRAGE-Fc [2]): 2.6 nM
B11: S2R4A3_10D8 scFv (scFv)
scFv: B1 scFv with R18K, I31F, G114N, G133E
notes: also called 10D8 (b)

IC50 (hRAGE-Fc [1]): 2.2 nM | Fold gain scFv (hRAGE) (hRAGE-Fc [7]): 15 fold | IC50 (hRAGE-Fc [2]): 2.2 nM
B3: S1R5A1_3B3 scFv (scFv)
scFv: B1 scFv with I31F, F229L

IC50 (hRAGE-Fc [1]): 1.9 nM | Fold gain scFv (hRAGE) (hRAGE-Fc [7]): 17.3 fold | IC50 (hRAGE-Fc [2]): 1.9 nM
B5: S2R3A1_2E6 scFv (scFv)
scFv: B1 scFv with S122N, G132V, T227N, F229L
notes: also called 2E6 (c)
